Data taken from patent US20240002531A1 (ONO PHARMACEUTICAL, published 2024).
Read-outs that look alike come from different tables or passages of the source.

What was measured:
[1] = target: T1, HER2 peptide p613-622 (human); assay: SPR Biacore, mAb on chip, peptide analyte, equilibrium analysis
T1 peptide: IWKFPDEEGA

[2] = target: T2, HER2 peptide p614-621 (human); assay: as above
T2 peptide: WKFPDEEG

[3] = target: T3, HER2-W614A expressed on CHO-K1 cells (human, UniProt P04626 23-1255); assay: flow cytometry on CHO-K1 cells expressing HER2-W614A
T3 construct: also called W614A point mutant; not shown: PA tag at the N terminus; RAP tag and MAP tag at the C terminus

[4] = target: T4, HER2-K615A expressed on CHO-K1 cells (human, UniProt P04626 23-1255); assay: flow cytometry on CHO-K1 cells expressing the point mutant
T4 construct: also called K615A point mutant; not shown: PA tag at the N terminus; RAP tag and MAP tag at the C terminus

[5] = target: T5, HER2-F616A expressed on CHO-K1 cells (human, UniProt P04626 23-1255); assay: as above
T5 construct: also called F616A point mutant; not shown: PA tag at the N terminus; RAP tag and MAP tag at the C terminus

[6] = target: T6, HER2 peptide p603-622 (amino acids 603 to 622 of human HER2) (human); assay: SPR Biacore, mAb on chip, peptide analyte, 1:1 fit; Table 2 (deletion mutants series)
T6 construct: Synthetic peptide; also called wild-type HER2 peptide
T6 peptide: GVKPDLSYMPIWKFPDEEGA

[7] = target: T7, W614A peptide (HER2 603-622 with W614A) (human); assay: SPR Biacore, mAb on chip, peptide analyte, equilibrium analysis
T7 peptide: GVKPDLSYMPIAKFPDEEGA

[8] = target: T5, HER2-F616A expressed on CHO-K1 cells; assay: flow cytometry on CHO-K1 cells expressing HER2-F616A
[9] = target: T8, HER2 peptide p611-619 (human); assay: SPR Biacore, mAb on chip, peptide analyte, 1:1 fit
T8 peptide: MPIWKFPDE

[10] = target: T9, HER2 peptide p612-618 (human); assay: SPR Biacore, mAb on chip, peptide analyte, 1:1 fit
T9 construct: also called PIWKFPD
T9 peptide: PIWKFPD

[11] = target: T10, HER2 peptide p609-621 (human); assay: SPR Biacore, mAb on chip, peptide analyte, 1:1 fit
T10 peptide: SYMPIWKFPDEEG

[12] = target: T11, HER2 peptide p610-619 (human); assay: SPR Biacore, mAb on chip, peptide analyte, 1:1 fit
T11 peptide: YMPIWKFPDE

[13] = target: T12, HER2 peptide p613-620 (human); assay: SPR Biacore, mAb on chip, peptide analyte, 1:1 fit
T12 peptide: IWKFPDEE

[14] = target: T6, HER2 peptide p603-622 (amino acids 603 …); assay: SPR Biacore, mAb on chip, peptide analyte, 1:1 fit
[15] = target: T13, HER2 peptide p611-620 (human); assay: SPR Biacore, mAb on chip, peptide analyte, 1:1 fit
T13 peptide: MPIWKFPDEE

[16] = target: T14, HER2 peptide p610-622 (human); assay: SPR Biacore, mAb on chip, peptide analyte, 1:1 fit
T14 peptide: YMPIWKFPDEEGA

[17] = target: T15, HER2 peptide p611-621 (human); assay: SPR Biacore, mAb on chip, peptide analyte, 1:1 fit
T15 peptide: MPIWKFPDEEG

[18] = target: T16, HER2 peptide p610-621 (human); assay: SPR Biacore, mAb on chip, peptide analyte, 1:1 fit
T16 peptide: YMPIWKFPDEEG

[19] = target: T17, HER2 peptide p614-622 (human); assay: SPR Biacore, mAb on chip, peptide analyte, 1:1 fit
T17 peptide: WKFPDEEGA

[20] = target: T18, HER2 peptide p609-620 (human); assay: SPR Biacore, mAb on chip, peptide analyte, 1:1 fit
T18 peptide: SYMPIWKFPDEE

[21] = target: T7, W614A peptide (HER2 603-622 with W614A); assay: SPR Biacore, mAb on chip, peptide analyte (ka N.D.)
[22] = target: T19, HER2 peptide p614-620 (human); assay: SPR Biacore, mAb on chip, peptide analyte, equilibrium analysis
T19 peptide: WKFPDEE

[23] = target: T2, HER2 peptide p614-621; assay: as above
[24] = target: T3, HER2-W614A expressed on CHO-K1 cells; assay: flow cytometry on CHO-K1 cells expressing the point mutant
[25] = target: T4, HER2-K615A expressed on CHO-K1 cells; assay: flow cytometry on CHO-K1 cells expressing HER2-K615A
[26] = target: T7, W614A peptide (HER2 603-622 with W614A); assay: SPR Biacore, mAb on chip, peptide analyte, equilibrium analysis (ka N.D.)

B1: H2Mab-214 antibody (antibody, V domains shown)
VH: QVTLKESGPGILQPSQTLSLTCSFSGFSLSTSGMGVSWIRQPSGKGLEWLAHIFWDDDKRYNPSLKSRLTISKDTSRNKVFLKITSVDTADTATYYCARRVVATDWYFDVWGAGTTVTVSS
VL: DIVLTQSPASLAVSLGQRATISCRASESVEYYGTTLMQWYQQKPGQPPKLLIYAASKVESGVPARFSGSGSGTDFSLNIHPVEEDDVAMYFCQQSRKVPLTFGAGTKLELKR
notes: Mouse monoclonal from a hybridoma (immunogen HER2ec made in LN229 cells); also called antibody of the present invention
Kd [1]: 127 µM
Kd [2]: 229 µM
binding result [3]: binds
binding result [4]: no binding (tested: 10 g/mL (so in the source))
binding result [5]: no binding (tested: 10 g/mL (so in the source))
kon [6]: 234000 M⁻¹ s⁻¹
Kd [7]: 1.46 µM

B2: H2Mab-250 antibody (antibody, V domains shown)
VH: EVQLVESGGGLVQPGGSLKLSCAASGFTFSNYGMSWVRQTPDRRLELVATINNNGGGTYYPDSVKGRFTISRDNAKNTLYLQMSSLKSEDTAMYYCTSPGLLWDAWGAGTTVTVSS
VL: not shown
notes: as for B1
binding result [8]: binds
Kd [9]: 0.00202 µM
koff [9]: 0.000487 s⁻¹
kon [9]: 240000 M⁻¹ s⁻¹
Kd [10]: 0.00192 µM
koff [10]: 0.00057 s⁻¹
kon [10]: 296000 M⁻¹ s⁻¹
Kd [11]: 0.00117 µM
koff [11]: 0.000289 s⁻¹
kon [11]: 247000 M⁻¹ s⁻¹
Kd [12]: 0.00119 µM
koff [12]: 0.00038 s⁻¹
kon [12]: 319000 M⁻¹ s⁻¹
Kd [13]: 0.0131 µM
koff [13]: 0.00371 s⁻¹
kon [13]: 283000 M⁻¹ s⁻¹
Kd [14]: 0.00367 µM
koff [14]: 0.00033 s⁻¹
kon [14]: 90100 M⁻¹ s⁻¹
Kd [15]: 0.00265 µM
koff [15]: 0.000387 s⁻¹
kon [15]: 146000 M⁻¹ s⁻¹
Kd [16]: 0.00181 µM
koff [16]: 0.00033 s⁻¹
kon [16]: 183000 M⁻¹ s⁻¹
Kd [17]: 0.00189 µM
koff [17]: 0.000411 s⁻¹
kon [17]: 218000 M⁻¹ s⁻¹
Kd [18]: 0.00136 µM
koff [18]: 0.000347 s⁻¹
kon [18]: 256000 M⁻¹ s⁻¹
Kd [19]: 2.91 µM
koff [19]: 0.00145 s⁻¹
kon [19]: 498 M⁻¹ s⁻¹
Kd [20]: 0.00124 µM
koff [20]: 0.000291 s⁻¹
kon [20]: 234000 M⁻¹ s⁻¹
koff [21]: 0.00438 s⁻¹
Kd [22]: 26.4 µM
Kd [23]: 26.6 µM
binding result [24]: no binding (tested: 10 g/mL (so in the source))
binding result [25]: binds
Kd [26]: 1050 µM
